The DeepSol protein solubility set

test: soluble on expression in E. coli; label from the status in PepcDB or PDB records

Sequence	soluble on expression in E. coli
MTDTRVLAVANQKGGVAKTTTVASLGAAMVEKGRRVLLVDLDPQGCLTFSLGQDPDKLPVSVHEVLLGEVEPNAVLVTTMEGMTLLPANIDLAGAEAMLLMRAGREYALKRALAKFSDRFDVVIIDCPPSLGVLTLNGLTAADKAIVPLQCEMLAHRGVGQFLRTVADVQQITNPNLRLLGALPTLYDSRTTHTRDVLLDVADRYDLQVLAPPIPRTVRFAEASASGSSVMAGRKNKGAVAYRELAQALLKHWKTGRPLPTFTVDL	soluble
MTDYDDYEDRSGVVEEELLDFDRAMLDFQAMFPSLSNSHIEYVLRKYDGDVSATINELLYDNTPTTTTSESIPHGGDLTKLRQRRHEINEKLRENQKFLDTVTDVEIARAYEDQQLALLLEHREVNTLISEEKKKKSCSDSSSIQESRRHVKIPGKNSKNSKISVNKAKKLEPRRRSDEDRVPDGPYIGEGEVKSENFAAKIKETLRKASGSRISRLFSAP	not soluble
MTEASIKLGTTSDKLEYEVIDKGSNGFLGIGSRDAVIKVKKAEASVEDEIREFLDSVFKAMKLEVTIDIKVDEDNRNVDVELNGPEMGVLIGKRGQTLDSLQYLTNLAINKQSENYYRVKIDTEDYRKRRRETLENLAKNISFKVKRTKRPVSLEPMNPFERRVIHSALQNDRFVETHSEGDEPYRHVVVTLKK	not soluble
MTEHPRAHTAHLRTARLELTPLDPAADARHLHHAYGDEEVMRWWTRPACADPAETERYLTSCAAAPGARLWTIRAPDGTVPGMAGLLGGTDVPGLTWLLRRDSWGHGYATEAAAAVVGHALEDGGLDRVEAWIEAGNRRSLAVAARVGLTERARLAQHYPHRPGPHEMVVLGKARAEEPLTTLAVITELPVRDVAATLRLVEAALGARTAFAIGDPPEFAEAALTPWSAGPRFRLAAVPGPGPVEPVRLHLDAAGTADSLHRRAVDAGARVDGPPVRRPWGRSEFVITLPEGHELTVSAPV	soluble
MTEISPKILETSSEPPPKKKRANFTLEFKNEVIRFAEQTNNCQAQKKYGVARACIQRWRHLKHELAFESEGKQGAKRLGGAGRPLKNVELDEKVEDWIASKNGKISGKDIKEYAKKINGNADFKASNGWLQRFMIRHGLIKARSSSPKTPSTSDGTTDKTLEESLFELINSDEWKNISEGNVSGFLEDFNAENGETSLKVEGNNSTTTESEVKQKPNESSKLPEINIFQQLEMLIKDSNGKEDSVEETETSVNRSPKSY	not soluble
MTEKKLLMGNEAIAFGAIEAGVQVVTGYPGTPSTEALETIARHAEKCGVYAEWSSNEKVALETAAGAAYSGAKALVTMKQVGLNVASDPLMSLTYIGVKGALVLLVADDPGPHSSQTEQDTRSFGHFANIPVLDPASPQEAYELTKLAFEISHQFEVPVILRTTTRVSHSSGDVELLNSEPSPVEAFC	not soluble
MTEKLKNSKEVIAYIAECFPKCFTLEGEAKPLKIGIFQDLAERLNEDEKVSKTQLRAALRQYTSSWRYLHGVKPGAVRVDLDGNPCGELEEEHVEHAKATLAESKAKVQARRKEQAQKAREEGKAKAKPAANKKPQQPRRTNKPKVQKPTKPVETRALNADEITVGNAVNVNMGKGNMAATIVEINKDDVRVQLANGLQMVVKAEHLRA	soluble
MTELARLKFYATQPHTCSYLPEEQATTLFLDPSQPMDVQVYADLSDMGFRRSGDHLYRPHCQNCSACVPARIPVNLFVPDRQQKRILKRNADIQVSSAKPVFTQEYFDLYQRYIEQRHADGDMFPPSREQFSTFLVRDLPFSRFYEFRVDQRLLAVAVTDLLPNGLSAVYTFYEPDEERRSLGRYAILWQIGEATRLQLQAVYLGYWIKNCKKMNYKTQYRPIELLTNQRWVTLYLEHHHHHH	not soluble
MTELKNDRYLRALLRQPVDVTPVWMMRRAGRYLPEYKATRAQAGDFMSLCKNAELACEVTLQPLRRYPLDAAILFSDILTIPDAMGLGLYFEAGEGPRFTAPVTCKADVEKLPIPDPEGELGYVMNAVRTIRRELKGEVPLIGFSGSPWTLATYMVEGGSSKAFTVIKKMMYADPQALHLLLDKLAKSVTLYLNAQIKAGAQSVMIFDTWGGVLTGRDYQQFSLYYMHKIVDGLLRENDGRRVPVTLFTKGGGQWLEAMAETGCDALGLDWTTDIADARRRVGHKVALQGNMDPSMLYAPPARIEDEVATILAGFGQGEGHVFNLGHGIHQDVPPEHAGAFVEAVHRLSAQYHN	not soluble
MTESEVRKLLRRMKELDSQTAFRAFYDMTYDRLYRIAYYYVKREEWSQEIVLDVFLKLWEQRSSLPEVKSIEDYCFILVKNASLNYLEKENRRTTVSTETLPEPEAQSDSPEESMISEELFAIYVKALDRLPERCREVFIRIREEKQSYAQVAEELGISTKTVDAQLQKATIRLKEAISMVNNDR	not soluble
MTESYDVVVVGGGPVGLATAWQVAERGHRVLVLERHTFFNENGGTSGAERHWRLQYTQEDLFRLTLETLPLWRALESRCERRLIHEIGSLWFGDTDVVTNEGQISGTAAMMDKLSVRYEWLKATDIERRFGFRGLPRDYEGFLQPDGGTIDVRGTLAALFTLAQAAGATLRAGETVTELVPDADGVSVTTDRGTYRAGKVVLACGPYTNDLLEPLGARLAYSVYEMAIAAYRQATPVTEAPFWFAFQQPTPQDTNLFFGFGHNPWAPGEFVRCGPDFEVDPLDHPSAATGVADRRQMDRLSGWLRDHLPTVDPDPVRTSTCLAVLPTDPERQFFLGTARDLMTHGEKLVVYGAGWAFKFVPLFGRICADLAVEDSTAYDISRLAPQSALLEHHHHHH	soluble
MTETLDHMDQSKIDHQKLAQQLLAQAKAEGVELVGPNGLLNQLTANVLETALEAEMDEHLGYEKHHVTGRNRENSRNGRRTKTVLTEIGPVQIQVPRDTDASFDPQIVKKRQRRLTGVDEIILSLSAKGLTTGEIAAHFDDVYGASVSKETISKITDKVLTEMAEWSVRPLDPVYPVLFIDAIHVKIRDGQVANRPVYVAIGVTTAGEREILGLWAGDGGEGAKFWLAVLTEIRNRGVADVCIAVCDGLKGLPDAITTVWPLTVVQTCLIHLLRNTFRYASRQYWDEMSRDLRPIYTAVNEAAAKEQFTEFADKWGPRYPAIVRLWESAWSEFVPFLDYDPEIRRVICSTNAIESLNARYRRAVRARGHFPSEQAALKCLYLATRSLDPTGKGRARWVTRWKPALNAFAITFEGRITPTVI	not soluble
MTFLDRTPDIILTMNEEGVIVSQNETARRVFGDVGGKIYSEICKDDTCSVGDRYYSMVAIKGFRRTIVVGRDITERIRLEKELEDRERKFKALAELSPAGILVHHQGTILFVNEALCQIHGYTREELLNRKVWDLIHPDYHDLARAMMQKRLEGEKPVYELKTIRKDGSERWVLVAGGAIDWDGKKSVMAFAIDITDKKMIEQRLAEREELFRSIFNISPAGLYILVGGKFKLVNPAFERITGYSAEELVGMKSLEIVAEEDREFVRRKAIEMLKGRETEPYKYRVVRKDGKIRWVYENVASIAYEGERAALGSVIDITEIEEERKRLEELTSMLELINKTLRHDVLNALTSAMALLEMGIEESNKDYLNKALTSINRAVSIVRNMRAFEDAVKSGELRCIDVGELVSEVAKSFENVSVKGEGRALADEGLRSVVENIVNNAFIHSGTDRVEITVSEGKEWCEIRIADFGIGIPDEIKQRIFEEGFKYGKAAQTGLGLFIARKIVERYAGEIWVEDNEPKGSVFVIRLKKC	not soluble
MTFLKEYVIVSGASGFIGKHLLEALKKSGISVVAITRDVIKNNSNALANVRWCSWDNIELLVEELSIDSALIGIIHLATEYGHKTSSLINIEDANVIKPLKLLDLAIKYRADIFLNTDSFFAKKDFNYQHMRPYIITKRHFDEIGHYYANMHDISFVNMRLEHVYGPGDGENKFIPYIIDCLNKKQSCVKCTTGEQIRDFIFVDDVVNAYLTILENRKEVPSYTEYQVGTGAGVSLKDFLVYLQNTMMPGSSSIFEFGAIEQRDNEIMFSVANNKNLKAMGWKPNFDYKKGIEELLKRL	not soluble
MTFNQEQDYWAGYKANERALIIQTWSGFGRYAPDHLYPPHILPLDTDNETLGTTVLQALANSRTFVYDSPEDQDFFDTEKIRQRYEDWVAKLCGNLGYKTRRALFKNMMSVDIWLHNGCLKISPSRHVKLEAWDAIDADDVILSLDNSPEEIGAGLKLALSRCR	soluble
MTFRNCVAVDLGASSGRVMLARYERECRSLTLREIHRFNNGLHSQNGYVTWDVDSLESAIRLGLNKVCEEGIRIDSIGIDTWGVDFVLLDQQGQRVGLPVAYRDSRTNGLMPQAQQQLGKRDIYQRSGIQFLPFNTLYQLRALTEQQPELIPHIAHALLMPDYFSYRLTGKMNWEYTNATTTQLVNINSDDWDESLLAWSGANKAWFGRPTHPGNVIGHWICPQGNEIPVVAVASHDTASAVIASPLNGSRAAYLSSGTWSLMGFESQTPFTNDTALAANITNEGGAEGRYRVLKNIMGLWLLQRVLQERQINDLPALIAATQALPACRFIINPNDDRFINPDEMCSEIQAACRETAQPIPGSDAELARCIFDSLALLYADVLHELAQLRGEDFSQLHIVGGGCQNTLLNQLCADACGIRVIAGPVEASTLGNIGIELMTLDELNNVDDFRQVVSTTANLTTFTPNPDSEIAHYVAQIHSTRQTKELCA	not soluble
MTGGFTPDSGRYHLYISHACPWAHRTMIFRTLKGLEDHITISAVHPDMLGEGWTFEPDDNGATGDTLYNSAFARDIYTRADPRFTGRVTVPILWDKQRETIVSNESSEIIRMFNAAFNGLTGNSDDYWPEPLRDAIAPVNERIYDTFNNGVYKAGFATTQQAYDAAIVPLFDTLDWLEERLSHNRYLMGDQLTEADWRLFTTLVRFDPVYHLHFKCNRKRIVDYPNLWGYTRELYQTPGVADTVNFDHIVRHYHYSHETINPNRIIPINPVLDFHRPHGRGLEHHHHHH	not soluble
MTGKKTLSIVGASGYAGGEFLRLALSHPYLEVKQVTSRRFAGEPVHFVHPNLRGRTNLKFVPPEKLEPADILVLALPHGVFAREFDRYSALAPVLVDLSADFRLKDPELYRRYYGEHPRPDLLGRFVYAVPELYREALKGADWIAGAGCNATATLLGLYPLLKAGVLKPTPIFVTLLISTSAGGAEASPASHHPERAGSIRVYKPTGHRHTAEVVENLPGRPEVHLTAIATDRVRGILMTAQCFVQDGWSERDVWQAYREAYAGEPFIRLVKQKKGVHRYPDPRFVQGTNYADIGFELEEDTGRLVVMTAIDNLVKGTAGHALQALNVRMGWPETLGLDFPGLHP	soluble
MTGQNGQVARISPGKFRQLGPVNWLVAKLAARAVGAPQMHLFTTLGYRQYLFWTFAIYTGRLLHGRLPGVDTELVILRVAHLRSCEYELQHHRRMARRRGLDANTQATIFAWPDVPDGDGPRKVLSARQQALLQATDELIKDRTITAGTWERLATHLDPRLLIEFCLLATQYDAIAATITALAIPPDNPQ	soluble
MTGQTVECIRSAGVVGAGGAGLPTHIKADASVDTVLVNGASCEPLLMSDPYLIQAHPDIVIRGLLAVMDCTGARRGIICLKGKHAAAMAAVRGAVTREGSGRLEVFELRDFYPAGDEHVLVHEVLGRTVPQGGIPLQIGAVVSNVETLYNVALAMEGAPVTHRYVTVSGEVKRHMVVKVPVGTLVSDVLTFAGGPAITEYKVVDGGPMMGRVLPHTGRPVTKTTSGLLVLPPDHTVVARKIMDPEKVRRITTSICCQCSHCTDLCPRNLLGHSLHPHRLMRVLEGQMHAGTVAREALLCSECGLCEKFACPMMVSPREINAQIKQVLRREGVRWESTGEEPVPHPFRKSRYVATGRLLRRLDLVQYDTHPGYAGEYTPHMVRIPLAQHIGAPAVCVVAPGDTVRTGDLIGEIPEKSMGARVHASISGRVESVEDGMVTIKAC	not soluble
MTHSLVCPETVSRVSSVLNRNTRQFGKKHLFDQDEETCWNSDQGPSQWVTLEFPQLIRVSQLQIQFQGGFSSRRGCLEGSQGTQALHKIVDFYPEDNNSLQTFPIPAAEVDRLKVTFEDATDFFGRVVIYHLRVLGEKV	soluble
